Earlier results on 1 molecule are cited in US20250241861A1, “Mechano-Sensitive Microcapsules For Drug Delivery” (The Trustees of the University of Pennsylvania, priority 2015, published 2025).

One data set deals with engineered cartilage. The note with it: 10 ng/ml, 5 days post-injury.
Data set [1] deals with MMP activity in chondrocytes. Conditions: 10 ng/ml, after inflammatory stimulation of chondrocytes.

B1: TGF-β3: transforming growth factor beta, anabolic compound / chondrogenic factor (protein, UniProt P10600 301-412, looked up)
Transforming growth factor …: ALDTNYCFRNLEENCCVRPLYIDFRQDLGWKWVHEPKGYYANFCSGPCPYLRSADTTHSTVLGLYNTLNPEASASPCCVPQDLEPLTILYYVGRTPKVEQLSNMVVKSCKCS
Consider B1, for which, in the data set on engineered cartilage, the “reduction of GAG loss compared to injured controls” value is on record as “about 30%”. For the same molecule, the MMP activity result in data set [1] was “reduce MMP activity”.
